Assay results reported in patent publication US10450368 (DUKE UNIVERSITY, dated 2019).

Experiments:
[1] = biological target: T1, SSB (UniProt P05455 1-408); test: AtheNA, Ab 25 ug/ml
T1 sequence: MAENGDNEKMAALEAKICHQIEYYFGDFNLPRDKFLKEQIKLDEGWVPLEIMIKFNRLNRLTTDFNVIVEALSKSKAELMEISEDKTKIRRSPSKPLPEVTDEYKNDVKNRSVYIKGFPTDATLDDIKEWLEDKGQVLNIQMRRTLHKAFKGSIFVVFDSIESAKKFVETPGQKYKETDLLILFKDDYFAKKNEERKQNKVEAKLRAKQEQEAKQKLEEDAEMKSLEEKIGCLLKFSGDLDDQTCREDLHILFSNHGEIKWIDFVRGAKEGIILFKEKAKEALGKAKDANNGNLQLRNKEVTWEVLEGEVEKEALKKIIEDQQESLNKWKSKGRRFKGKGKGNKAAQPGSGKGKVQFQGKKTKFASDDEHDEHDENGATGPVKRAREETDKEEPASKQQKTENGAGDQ

[2] = biological target: T2, SSA; test: AtheNA, Ab 25 ug/ml
T2 construct: also called SSA (Ro)

[3] = biological target: T3, Histones; test: AtheNA, Ab 25 ug/ml
T3 construct: Mixture of proteins

[4] = biological target: T4, Jo-1 (UniProt P12081 1-509); test: AtheNA, Ab 25 ug/ml
T4 sequence: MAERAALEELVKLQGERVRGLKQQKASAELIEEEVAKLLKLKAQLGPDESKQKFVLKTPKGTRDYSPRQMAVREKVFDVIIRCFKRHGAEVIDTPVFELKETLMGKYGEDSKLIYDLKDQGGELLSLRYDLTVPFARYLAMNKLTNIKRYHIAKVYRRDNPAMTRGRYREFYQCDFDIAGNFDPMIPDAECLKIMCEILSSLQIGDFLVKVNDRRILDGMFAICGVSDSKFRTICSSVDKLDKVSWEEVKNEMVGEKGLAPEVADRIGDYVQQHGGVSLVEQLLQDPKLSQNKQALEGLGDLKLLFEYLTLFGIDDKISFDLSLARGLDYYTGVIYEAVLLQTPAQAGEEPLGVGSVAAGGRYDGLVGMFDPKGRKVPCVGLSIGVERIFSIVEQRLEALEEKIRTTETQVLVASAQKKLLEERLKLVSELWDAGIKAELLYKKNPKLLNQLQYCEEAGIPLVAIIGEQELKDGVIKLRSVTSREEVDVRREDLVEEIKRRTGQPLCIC

[5] = biological target: T5, Centromere B (UniProt P07199 1-599); test: AtheNA, Ab 25 ug/ml
T5 construct: also called Cent B
T5 sequence: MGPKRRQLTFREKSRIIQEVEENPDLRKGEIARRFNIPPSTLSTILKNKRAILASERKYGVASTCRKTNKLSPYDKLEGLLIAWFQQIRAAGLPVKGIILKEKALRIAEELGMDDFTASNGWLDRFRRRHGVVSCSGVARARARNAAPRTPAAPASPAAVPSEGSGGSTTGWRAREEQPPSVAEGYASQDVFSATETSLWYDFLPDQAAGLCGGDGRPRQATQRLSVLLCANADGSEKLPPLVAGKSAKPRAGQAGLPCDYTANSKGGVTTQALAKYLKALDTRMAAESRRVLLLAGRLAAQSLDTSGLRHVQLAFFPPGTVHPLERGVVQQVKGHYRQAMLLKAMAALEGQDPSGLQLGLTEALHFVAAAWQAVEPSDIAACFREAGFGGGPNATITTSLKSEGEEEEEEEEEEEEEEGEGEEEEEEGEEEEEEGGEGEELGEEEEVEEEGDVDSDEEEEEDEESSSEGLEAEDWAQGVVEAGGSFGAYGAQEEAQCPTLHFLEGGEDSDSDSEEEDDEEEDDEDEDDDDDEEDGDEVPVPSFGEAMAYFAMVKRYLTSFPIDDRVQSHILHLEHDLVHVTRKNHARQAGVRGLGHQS

[6] = biological target: T6, RNP (ribonucleoprotein); test: AtheNA, Ab 25 ug/ml
T6 construct: Protein-RNA complex

[7] = biological target: T7, Scl-70 (UniProt P11387 1-765); test: AtheNA, Ab 25 ug/ml
T7 sequence: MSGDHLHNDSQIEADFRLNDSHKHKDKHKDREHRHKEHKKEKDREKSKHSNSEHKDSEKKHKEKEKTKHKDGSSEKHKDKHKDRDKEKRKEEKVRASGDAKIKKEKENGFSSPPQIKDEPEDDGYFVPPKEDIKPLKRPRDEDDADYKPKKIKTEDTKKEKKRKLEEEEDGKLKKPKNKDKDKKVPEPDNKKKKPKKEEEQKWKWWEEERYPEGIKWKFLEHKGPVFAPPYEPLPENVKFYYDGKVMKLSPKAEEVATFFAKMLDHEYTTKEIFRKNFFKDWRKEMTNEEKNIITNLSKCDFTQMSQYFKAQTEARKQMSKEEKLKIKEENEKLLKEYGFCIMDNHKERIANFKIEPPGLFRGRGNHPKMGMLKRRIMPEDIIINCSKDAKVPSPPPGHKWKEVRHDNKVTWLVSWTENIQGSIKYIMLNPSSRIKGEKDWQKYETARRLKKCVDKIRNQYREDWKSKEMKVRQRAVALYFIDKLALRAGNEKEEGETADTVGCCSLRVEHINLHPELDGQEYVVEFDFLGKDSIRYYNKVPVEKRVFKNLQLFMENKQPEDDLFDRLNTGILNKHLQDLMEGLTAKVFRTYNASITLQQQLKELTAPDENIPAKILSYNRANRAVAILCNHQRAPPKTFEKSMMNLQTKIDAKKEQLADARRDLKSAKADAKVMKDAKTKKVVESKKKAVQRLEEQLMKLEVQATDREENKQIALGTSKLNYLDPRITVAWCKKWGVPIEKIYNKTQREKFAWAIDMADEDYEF

[8] = biological target: T8, Sm (Smith antigen); test: AtheNA, Ab 25 ug/ml
T8 construct: Protein complex

[9] = biological target: T1, SSB; test: AtheNA, Ab 6.25 ug/ml
[10] = biological target: T3, Histones; test: AtheNA, Ab 6.25 ug/ml
[11] = biological target: T5, Centromere B; test: AtheNA, Ab 6.25 ug/ml
[12] = biological target: T6, RNP (ribonucleoprotein); test: AtheNA, Ab 6.25 ug/ml
[13] = biological target: T2, SSA; test: AtheNA, Ab 50 ug/ml
[14] = biological target: T3, Histones; test: AtheNA, Ab 50 ug/ml
[15] = biological target: T6, RNP (ribonucleoprotein); test: AtheNA, Ab 50 ug/ml
[16] = biological target: T8, Sm (Smith antigen); test: AtheNA, Ab 50 ug/ml

B1: CH557 (antibody, V domains shown)
VH: QVRLAQYGGGVKRLGATMTLSCVASGYTFNDYYIHWVRQAPGQGFELLGYIDPANGRPDYAGALRERLSFYRDKSMETLYMDLRSLRYDDTAMYYCVRNVGTAGSLLHYDHWGSGSPVIVSS
VL: EIVLTQSPATLSASPGERVTLTCRASRSVRNNVAWYQHKGGQSPRLLIYDASTRAAGVPARFSGSASGTEFTLAISNLESEDFTVYFCLQYNNWWTFGQGTRVDIK
notes: also called CH235.12; CH557_4A/293i
AtheNA signal [1]: 12 relative luminescence units | AtheNA signal [2]: 4 relative luminescence units | AtheNA signal [3]: 8 relative luminescence units | AtheNA signal [4]: 2 relative luminescence units | AtheNA signal [5]: 25 relative luminescence units | AtheNA signal [6]: 6 relative luminescence units | AtheNA signal [7]: 4 relative luminescence units | AtheNA signal [8]: 6 relative luminescence units | AtheNA signal [9]: 5 relative luminescence units | AtheNA signal [10]: 4 relative luminescence units | AtheNA signal [11]: 11 relative luminescence units | AtheNA signal [12]: 4 relative luminescence units | AtheNA signal [13]: 6 relative luminescence units | AtheNA signal [14]: 16 relative luminescence units | AtheNA signal [15]: 10 relative luminescence units | AtheNA signal [16]: 8 relative luminescence units
